According to article doi:10.1101/827691:

Molecular target: α1-subCD3 as used in cross-linking and NMR (apparent molecular weight 27 kDa) (human) (UniProt P05023)
Experiment: cross-linking

stoichiometry N (FGF2 per α1-subCD3): 1
Substance: N-terminally His6-tagged FGF2 (18 kDa isoform), wild type (from UniProt P09038-2 1-155) (natural protein)
